# Laboratory results from the Immune Epitope Database (IEDB).
# Assays:
# Assay in all cases: IEDB peptide-MHC binding, purified MHC/competitive/radioactivity; filed as Kd, often an IC50 or EC50 that approximates it; ≥ and ≤ were set here for values at or beyond the usual limits of such assays
# [1] = biological target: HLA-A*03:01
# [2] = biological target: HLA-A*11:01
# [3] = biological target: HLA-A*31:01
# [4] = biological target: HLA-A*33:01
# [5] = biological target: HLA-A*68:01
# [6] = source organism: Vaccinia virus WR
# [7] = source organism: Mammarenavirus guanaritoense
# [8] = source organism: Dengue virus 2 Jamaica/1409/1983
# [9] = source organism: Dengue virus 1 Brazil/97-11/1997
# [10] = source organism: Dengue virus 4 Philippines/H241/1956
# [11] = source organism: Mammarenavirus brazilense
# [12] = source organism: Triticum aestivum
# [13] = source organism: SARS coronavirus Tor2
# [14] = source organism: Lassa virus Josiah
# [15] = source organism: Dengue virus 3 Martinique/1243/1999
# [16] = source organism: Mammarenavirus machupoense
# [17] = source organism: Vaccinia virus Copenhagen
# [18] = source organism: Dengue virus 1 Nauru/West Pac/1974
Sequence,"Kd [1, 6] [nM]","Kd [2, 6] [nM]","Kd [3, 6] [nM]","Kd [4, 6] [nM]","Kd [5, 6] [nM]",other results
ISAEKTPIR,≥ 78000,6020,≥ 41700,≥ 77700,275,
ITSTKTIEY,122,434,15100,≥ 20900,1730,
IVTMMKYCSY,127,26.8,31.6,235,41.5,
KCSDHYLCLR,,,,,,"Kd [1, 7]: 4760 nM; Kd [2, 7]: ≥ 44800 nM; Kd [3, 7]: 140 nM; Kd [4, 7]: 5780 nM; Kd [5, 7]: ≥ 70100 nM"
KFAEESYTY,≥ 78000,16500,13500,≥ 77700,≥ 38700,
KKKTPRMCTR,,,,,,"Kd [3, 8]: 768 nM"
KLILAEYIR,8070,15200,68.1,9560,2090,
KLRPRWLDAR,,,,,,"Kd [3, 9]: 0.403 nM"
KSIENKHQR,12600,29.4,1.55,1080,100,
KTSSVARLR,,,,,,Kd ([2]; source organism: Lymphocytic choriomeningitis virus (strain Armstrong)): 72.8 nM
LIKNAQTPR,,,,,,"Kd [3, 10]: 13.6 nM"
LIKTILASY,568,7870,7440,18700,10300,
LITGNMSFR,,,,,,"Kd [4, 8]: 1310 nM; Kd [5, 8]: 26.2 nM"
LLLTSSQQK,,,,,,"Kd [1, 8]: 15.5 nM"
LLVKMINHLK,258,400,5420,≥ 67500,776,
LNTPYCNYTK,,,,,,"Kd [1, 11]: 15300 nM; Kd [2, 11]: 10800 nM; Kd [3, 11]: 6410 nM; Kd [4, 11]: 32 nM; Kd [5, 11]: 695 nM"
LQQHNIVHGK,,,,,,"Kd [1, 12]: 1160 nM; Kd [2, 12]: 100 nM; Kd [3, 12]: 2420 nM; Kd [4, 12]: ≥ 70000 nM; Kd [5, 12]: ≥ 47900 nM"
LTSMKYFVK,,,,,,"Kd [1, 13]: 223 nM; Kd [2, 13]: 19.9 nM; Kd [3, 13]: 74.9 nM; Kd [4, 13]: 939 nM; Kd [5, 13]: 234 nM"
LTTLSRTSK,,,,,,"Kd [2, 8]: 214 nM"
LVAPSYGMR,,,,,,"Kd [5, 10]: 3.84 nM"
LVYIFEPEK,382,24.9,≥ 21100,≥ 77700,130,
NIQKITVFNK,47.4,5.8,3.89,1200,30.5,
NIVTDLENR,9090,8740,1740,832,21.9,
PAGRPNYVK,≥ 31900,210,12,7210,15900,

Sequence,"Kd [1, 6] [nM]","Kd [2, 6] [nM]","Kd [3, 6] [nM]","Kd [4, 6] [nM]","Kd [5, 6] [nM]",other results
PVSDLYTSMR,6260,638,539,346,1.3,
PVYLMTLMK,,,,,,"Kd [1, 10]: 3.91 nM; Kd [2, 10]: 196 nM"
QAAVLMGLGK,,,,,,"Kd [5, 10]: 60.7 nM"
QIGEYTFEK,,,,,,"Kd [1, 13]: 48.7 nM; Kd [2, 13]: 9.93 nM; Kd [3, 13]: 1920 nM; Kd [4, 13]: ≥ 22200 nM; Kd [5, 13]: 589 nM"
QTMLFTMLRK,,,,,,"Kd [1, 13]: 11.1 nM; Kd [2, 13]: 4.57 nM; Kd [3, 13]: 164 nM; Kd [4, 13]: 268 nM; Kd [5, 13]: 19.9 nM"
RASLIPDATH,,,,,,"Kd [2, 14]: ≥ 59100 nM; Kd [3, 14]: 1980 nM; Kd [4, 14]: ≥ 50700 nM; Kd [5, 14]: 19600 nM"
RAVKFAEESY,14800,14500,≥ 70000,≥ 70000,7290,
RMCTREEFTR,,,,,,"Kd [3, 8]: 5.72 nM; Kd [4, 8]: 654 nM"
RMIVGKNER,,,,,,"Kd [3, 15]: 16.1 nM"
RSAFNDDGIY,≥ 70100,≥ 66400,≥ 70000,≥ 70000,≥ 31800,
RSTPFNMLKR,,,,,,"Kd [3, 8]: 1390 nM"
SAVIDALPR,,,,,,"Kd [1, 14]: 11000 nM; Kd [2, 14]: 222 nM; Kd [3, 14]: 2120 nM; Kd [4, 14]: 15300 nM; Kd [5, 14]: 53.3 nM"
SFFQEIPVFL,,,,,,"Kd [1, 16]: ≥ 70000 nM; Kd [2, 16]: ≥ 59700 nM; Kd [3, 16]: 613 nM; Kd [4, 16]: 2410 nM; Kd [5, 16]: ≥ 49200 nM"
SLAIKNYYR,,,,,,"Kd [1, 17]: ≥ 43000 nM; Kd [2, 17]: 6060 nM; Kd [3, 17]: 3100 nM; Kd [4, 17]: ≥ 77700 nM; Kd [5, 17]: 6410 nM"
SLLTCAKFK,,,,,,"Kd [1, 9]: 21 nM"
SLQVCVQTVR,,,,,,"Kd [1, 13]: 13300 nM; Kd [2, 13]: 7030 nM; Kd [3, 13]: 470 nM; Kd [4, 13]: 5110 nM; Kd [5, 13]: 5790 nM"
SMTIREFPRK,10.1,3.18,39.6,6880,1250,
SSRVDRYSK,65.9,16.9,266,1210,611,
STYGWNIVK,,,,,,"Kd [1, 15]: 4.75 nM"
TAKLRWFVER,,,,,,"Kd [3, 9]: ≥ 28400 nM; Kd [4, 9]: 34.2 nM"
TTILDVDLR,,,,,,"Kd [5, 10]: 35.8 nM"
VTLFFLSGR,,,,,,"Kd [3, 18]: 7490 nM; Kd [4, 18]: 98 nM"
VVRPPFNMLK,,,,,,"Kd [1, 10]: 4.44 nM; Kd [2, 10]: 70.9 nM"
VVYDAKFEK,,,,,,"Kd [1, 9]: 7.01 nM; Kd [2, 9]: 42.4 nM"
